Source: US20140087995A1 (published 2014)
One block for each binder: values may come before it. Numbered stars: 1 amine (or outer) side, 2 acyl side, 3 side chain; on linkers, the order of the positions; unused ones are H or OH. Bridge positions count the residues as written; N and C are the ends. Side chains are listed from the residue outwards. Ends that are not written are not given here. * marks the point of attachment. C20 diacid = O=C(O)CCCCCCCCCCCCCCCCCCC(=O)*; γGlu = O=C(O)[C@H](CCC(=O)[*:2])N[*:1]; AEEA = NCCOCCOCC(=O)O

Tests used:
[1] = target: T1, human calcitonin receptor (human, UniProt P30988 25-474); experiment: SPA radioligand competition (125I-calcitonin), membranes of BHK cells with human calcitonin receptor
T1 construct: whole, on cells; also called hCTR; hCT
T1 sequence (looked up): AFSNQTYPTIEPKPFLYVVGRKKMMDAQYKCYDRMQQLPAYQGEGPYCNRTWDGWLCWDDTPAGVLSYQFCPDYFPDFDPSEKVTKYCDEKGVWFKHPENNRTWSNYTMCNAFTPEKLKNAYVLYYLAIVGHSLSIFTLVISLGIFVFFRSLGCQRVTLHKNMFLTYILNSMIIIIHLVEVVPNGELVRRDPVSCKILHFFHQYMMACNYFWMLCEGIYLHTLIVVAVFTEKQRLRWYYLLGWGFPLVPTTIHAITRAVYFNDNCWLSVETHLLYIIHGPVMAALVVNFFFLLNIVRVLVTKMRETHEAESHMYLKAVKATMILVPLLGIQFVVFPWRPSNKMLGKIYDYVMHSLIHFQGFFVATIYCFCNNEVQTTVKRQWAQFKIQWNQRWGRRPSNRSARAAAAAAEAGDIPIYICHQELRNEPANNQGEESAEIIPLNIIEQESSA
Description: Membranes were prepared in the following way; the cells were rinsed with PBS and incubated with Versene for approximately 5 min before harvesting. The cells were flushed with PBS and the cell-suspension was centrifuged for 5 min at 1000 rpm. Cells were homogenized (Ultrathurrax) in a buffer containing 20 mM Na-HEPES and 10 mM EDTA (pH 7.4) and centrifuged at 20.000 rpm for 15 min. The resulting pellet was resuspended, homogenized and centrifuged (20.000 rpm, 15 min) in a buffer containing 20 mM Na-HEPES and 0.1 mM EDTA (pH 7.4, buffer 2). The resulting pellet was resuspended in buffer 2 and protein concentration was measured (BCA protein Assay, Pierce). The homogenate was kept cold during the whole procedure. The membranes were kept at −80° C. until use. Assay was performed in a 384 well Optiplate (PerkinElmer) in a total volume of 40 ul. Membranes were mixed with SPA beads. Final concentration of membranes 35 ng/μL final and Final concentration of SPA beads was 0.05 mg/well. Test-compounds were dissolved in DMSO and further diluted in assay buffer (50 mM Hepes, pH 7.4, 1 mM CaCl2, 5 mM MgCl₂, 0.1% OA and 0.02% Tween20). […] The final mixture was incubated for 120 min with shaking at 400 rpm at 25° C. prior to centrifugation (1500 rpm, 10 min). Samples were analyzed on TopCounter™ (Packard). The […] was calculated using (one site binding competition analysis) GraphPad Prism5 as a measure of receptor affinity.

[2] = target: T1, human calcitonin receptor; experiment: ratio of IC50 at human calcitonin receptor to IC50 at human amylin receptor (SPA competition assays)
Description: The resulting pellet was resuspended, homogenized and centrifuged (20.000 rpm, 15 min) in a buffer containing 20 mM Na-HEPES and 0.1 mM EDTA (pH 7.4, buffer 2). The resulting pellet was resuspended in buffer 2 and protein concentration was measured (BCA protein Assay, Pierce). The homogenate was kept cold during the whole procedure. The membranes were kept at −80° C. until use. The assay was performed in a 384 well Optiplate (PerkinElmer) in a total volume of 40 ul. Membranes were mixed with SPA beads. Final concentration of membranes 35 ng/μL final and SPA beads was 0.05 mg/well. Test-compounds were dissolved in DMSO and further diluted in assay buffer (50 mM Hepes, pH 7.4, 1 mM CaCl2, 5 mM MgCl₂, 0.1% OA and 0.02% Tween20). […] The final mixture was incubated with shaking at 400 rpm for 120 min at 25° C. prior to centrifugation (1500 rpm, 10 min). Samples were analyzed on TopCounter™ (Packard). The IC₅₀ was calculated using (one site binding competition analysis) GraphPad Prism5 as a measure of receptor affinity.
Membranes were prepared in the following way; the cells were rinsed with PBS and incubated with Versene for approximately 5 min before harvesting. The cells were flushed with PBS and the cell-suspension was centrifuged for 5 min at 1000 rpm. Cells were homogenized (Ultrathurrax) in a buffer containing 20 mM Na-HEPES and 10 mM EDTA (pH 7.4) and centrifuged at 20.000 rpm for 15 min. The resulting pellet was resuspended, homogenized and centrifuged (20.000 rpm, 15 min) in a buffer containing 20 mM Na-HEPES and 0.1 mM EDTA (pH 7.4, buffer 2). The resulting pellet was resuspended in buffer 2 and protein concentration was measured (BCA protein Assay, Pierce). The homogenate was kept cold during the whole procedure. The membranes were kept at −80° C. until use. Assay was performed in a 384 well Optiplate (PerkinElmer) in a total volume of 40 ul. Membranes were mixed with SPA beads.

- IC50 [1]: 17.2 nM
- Ratio hCT/hAmylin binding [2]: 80
B1: N^ε1-[2-[2-[2-[[(4S)-4-carboxy-4-(19-carboxynonadecanoylamino)butanoyl]amino]ethoxy]ethoxy]acetyl]-[Arg17,Pro21,Pro27,His34]-h-amylin (peptide)
peptide: K([AEEA-γGlu-C20 diacid])CNTATCATQRLANFLRHSSPNFGAIPSSTNVGHNTY-NH2
modifications: disulfide 2-7; N-terminus assumed
SMILES: CC[C@H](C)[C@H](NC(=O)[C@H](C)NC(=O)CNC(=O)[C@H](Cc1ccccc1)NC(=O)[C@H](CC(N)=O)NC(=O)[C@@H]1CCCN1C(=O)[C@H](CO)NC(=O)[C@H](CO)NC(=O)[C@H](Cc1c[nH]cn1)NC(=O)[C@H](CCCNC(=N)N)NC(=O)[C@H](CC(C)C)NC(=O)[C@H](Cc1ccccc1)NC(=O)[C@H](CC(N)=O)NC(=O)[C@H](C)NC(=O)[C@H](CC(C)C)NC(=O)[C@H](CCCNC(=N)N)NC(=O)[C@H](CCC(N)=O)NC(=O)[C@@H](NC(=O)[C@H](C)NC(=O)[C@@H]1CSSC[C@H](NC(=O)[C@@H](N)CCCCNC(=O)COCCOCCNC(=O)CC[C@H](NC(=O)CCCCCCCCCCCCCCCCCCC(=O)O)C(=O)O)C(=O)N[C@@H](CC(N)=O)C(=O)N[C@@H]([C@@H](C)O)C(=O)N[C@@H](C)C(=O)N[C@@H]([C@@H](C)O)C(=O)N1)[C@@H](C)O)C(=O)N1CCC[C@H]1C(=O)N[C@@H](CO)C(=O)N[C@@H](CO)C(=O)N[C@H](C(=O)N[C@@H](CC(N)=O)C(=O)N[C@H](C(=O)NCC(=O)N[C@@H](Cc1c[nH]cn1)C(=O)N[C@@H](CC(N)=O)C(=O)N[C@H](C(=O)N[C@@H](Cc1ccc(O)cc1)C(N)=O)[C@@H](C)O)C(C)C)[C@@H](C)O
notes: also called compound 76

- IC50 [1]: 2.57 nM
- Ratio hCT/hAmylin binding [2]: 42.2
B2: N^ε1-[2-[2-[2-(19-carboxynonadecanoylamino)ethoxy]ethoxy]acetyl]-[His14,Arg17,Pro21,Pro27]-h-amylin (peptide)
peptide: K([AEEA-C20 diacid])CNTATCATQRLAHFLRHSSPNFGAIPSSTNVGSNTY-NH2
modifications: disulfide 2-7; N-terminus assumed
SMILES: CC[C@H](C)[C@H](NC(=O)[C@H](C)NC(=O)CNC(=O)[C@H](Cc1ccccc1)NC(=O)[C@H](CC(N)=O)NC(=O)[C@@H]1CCCN1C(=O)[C@H](CO)NC(=O)[C@H](CO)NC(=O)[C@H](Cc1c[nH]cn1)NC(=O)[C@H](CCCNC(=N)N)NC(=O)[C@H](CC(C)C)NC(=O)[C@H](Cc1ccccc1)NC(=O)[C@H](Cc1c[nH]cn1)NC(=O)[C@H](C)NC(=O)[C@H](CC(C)C)NC(=O)[C@H](CCCNC(=N)N)NC(=O)[C@H](CCC(N)=O)NC(=O)[C@@H](NC(=O)[C@H](C)NC(=O)[C@@H]1CSSC[C@H](NC(=O)[C@@H](N)CCCCNC(=O)COCCOCCNC(=O)CCCCCCCCCCCCCCCCCCC(=O)O)C(=O)N[C@@H](CC(N)=O)C(=O)N[C@@H]([C@@H](C)O)C(=O)N[C@@H](C)C(=O)N[C@@H]([C@@H](C)O)C(=O)N1)[C@@H](C)O)C(=O)N1CCC[C@H]1C(=O)N[C@@H](CO)C(=O)N[C@@H](CO)C(=O)N[C@H](C(=O)N[C@@H](CC(N)=O)C(=O)N[C@H](C(=O)NCC(=O)N[C@@H](CO)C(=O)N[C@@H](CC(N)=O)C(=O)N[C@H](C(=O)N[C@@H](Cc1ccc(O)cc1)C(N)=O)[C@@H](C)O)C(C)C)[C@@H](C)O
notes: also called compound 90

- IC50 [1]: 61.3 nM
- Ratio hCT/hAmylin binding [2]: 63.4
B3: N^ε1-[2-[2-[2-[[2-[2-[2-[[(4S)-4-carboxy-4-(19-carboxynonadecanoylamino)butanoyl]amino]ethoxy]ethoxy]acetyl]amino]ethoxy]ethoxy]acetyl]-[Arg17,Pro21,Pro27,Arg34 … (peptide)
peptide: K([AEEA-AEEA-γGlu-C20 diacid])CNTATCATQRLANFLRHSSPNFGAIPSSTNVGRNTY-NH2
modifications: disulfide 2-7; N-terminus assumed
SMILES: CC[C@H](C)[C@H](NC(=O)[C@H](C)NC(=O)CNC(=O)[C@H](Cc1ccccc1)NC(=O)[C@H](CC(N)=O)NC(=O)[C@@H]1CCCN1C(=O)[C@H](CO)NC(=O)[C@H](CO)NC(=O)[C@H](Cc1c[nH]cn1)NC(=O)[C@H](CCCNC(=N)N)NC(=O)[C@H](CC(C)C)NC(=O)[C@H](Cc1ccccc1)NC(=O)[C@H](CC(N)=O)NC(=O)[C@H](C)NC(=O)[C@H](CC(C)C)NC(=O)[C@H](CCCNC(=N)N)NC(=O)[C@H](CCC(N)=O)NC(=O)[C@@H](NC(=O)[C@H](C)NC(=O)[C@@H]1CSSC[C@H](NC(=O)[C@@H](N)CCCCNC(=O)COCCOCCNC(=O)COCCOCCNC(=O)CC[C@H](NC(=O)CCCCCCCCCCCCCCCCCCC(=O)O)C(=O)O)C(=O)N[C@@H](CC(N)=O)C(=O)N[C@@H]([C@@H](C)O)C(=O)N[C@@H](C)C(=O)N[C@@H]([C@@H](C)O)C(=O)N1)[C@@H](C)O)C(=O)N1CCC[C@H]1C(=O)N[C@@H](CO)C(=O)N[C@@H](CO)C(=O)N[C@H](C(=O)N[C@@H](CC(N)=O)C(=O)N[C@H](C(=O)NCC(=O)N[C@@H](CCCNC(=N)N)C(=O)N[C@@H](CC(N)=O)C(=O)N[C@H](C(=O)N[C@@H](Cc1ccc(O)cc1)C(N)=O)[C@@H](C)O)C(C)C)[C@@H](C)O
notes: also called compound 95

- IC50 [1]: 13.2 nM
- Ratio hCT/hAmylin binding [2]: 79.6
B4: N^ε1-[2-[2-[2-[[2-[2-[2-[[(4S)-4-carboxy-4-(19-carboxynonadecanoylamino)butanoyl]amino]ethoxy]ethoxy]acetyl]amino]ethoxy]ethoxy]acetyl]-[Arg17,Pro21,Pro27,Pro31 … (peptide)
peptide: K([AEEA-AEEA-γGlu-C20 diacid])CNTATCATQRLANFLRHSSPNFGAIPSSTPVGSNTY-NH2
modifications: disulfide 2-7; N-terminus assumed
SMILES: CC[C@H](C)[C@H](NC(=O)[C@H](C)NC(=O)CNC(=O)[C@H](Cc1ccccc1)NC(=O)[C@H](CC(N)=O)NC(=O)[C@@H]1CCCN1C(=O)[C@H](CO)NC(=O)[C@H](CO)NC(=O)[C@H](Cc1c[nH]cn1)NC(=O)[C@H](CCCNC(=N)N)NC(=O)[C@H](CC(C)C)NC(=O)[C@H](Cc1ccccc1)NC(=O)[C@H](CC(N)=O)NC(=O)[C@H](C)NC(=O)[C@H](CC(C)C)NC(=O)[C@H](CCCNC(=N)N)NC(=O)[C@H](CCC(N)=O)NC(=O)[C@@H](NC(=O)[C@H](C)NC(=O)[C@@H]1CSSC[C@H](NC(=O)[C@@H](N)CCCCNC(=O)COCCOCCNC(=O)COCCOCCNC(=O)CC[C@H](NC(=O)CCCCCCCCCCCCCCCCCCC(=O)O)C(=O)O)C(=O)N[C@@H](CC(N)=O)C(=O)N[C@@H]([C@@H](C)O)C(=O)N[C@@H](C)C(=O)N[C@@H]([C@@H](C)O)C(=O)N1)[C@@H](C)O)C(=O)N1CCC[C@H]1C(=O)N[C@@H](CO)C(=O)N[C@@H](CO)C(=O)N[C@H](C(=O)N1CCC[C@H]1C(=O)N[C@H](C(=O)NCC(=O)N[C@@H](CO)C(=O)N[C@@H](CC(N)=O)C(=O)N[C@H](C(=O)N[C@@H](Cc1ccc(O)cc1)C(N)=O)[C@@H](C)O)C(C)C)[C@@H](C)O
notes: also called compound 96
